In article PMC5776092:

Target: cysteine deficient variant of the human neuropeptide Y receptor type 2 (Y2R), refolded and reconstituted into DMPC/DHPC-c7 bicelles (human) (UniProt P49146)

“pre-assembled Gαi1β1γ1 heterotrimer (from UniProt P10824 1-354; P62871 1-340; P02698 1-74) (complex)” showed an apparent GTPγS binding rate k of Gαi1 (intrinsic W211 tryptophan fluorescence, nucleotide exchange), Y2R in isotropic bicelles activated with 10 fold excess of NPY, 16°C of 0.06 s⁻¹ and an apparent GTPγS binding rate k of Gαi1 (intrinsic W211 tryptophan fluorescence, nucleotide exchange), Y2R in non-isotropic bicelles activated with 10 fold excess of NPY, 16°C of 0.045 s⁻¹.
